Data: article PMC13477270 (Nature structural & molecular biology, 2025)

Molecular target: the molecule itself
Experiment: SEC-MALS

B1: miniTRIM37 RING–B-box-2–hcc B-box-2 mutant (other)
chain: MDEQSVESIAEVFRCFICMEKLRDARLCPHCSKLCCFSCIRRWLTEQRAQCPHCRAPLQLRELVNCRWAEEVTQQLDTLQLCSLTKHEENEKDKCENHHEKLSVFCWTCKKCICAQCAAWGGMHGGHTFKPLAEIYEQHVTKVNEEVAKLRRRLMELITERNQVAKRVPKAPPEEKEALIARGKALGEETELLESLLQEVEHQLRSCSKSELISKSSEILMMFQQVHRK
  stoichiometry N: 2
